These results are taken from patent US20240366663A1.

The assay deals with CD20 (UniProt P11836). Nature of the assay: cell-based or functional assay.
Chain of UniProt P11836 (P11836 whole entry): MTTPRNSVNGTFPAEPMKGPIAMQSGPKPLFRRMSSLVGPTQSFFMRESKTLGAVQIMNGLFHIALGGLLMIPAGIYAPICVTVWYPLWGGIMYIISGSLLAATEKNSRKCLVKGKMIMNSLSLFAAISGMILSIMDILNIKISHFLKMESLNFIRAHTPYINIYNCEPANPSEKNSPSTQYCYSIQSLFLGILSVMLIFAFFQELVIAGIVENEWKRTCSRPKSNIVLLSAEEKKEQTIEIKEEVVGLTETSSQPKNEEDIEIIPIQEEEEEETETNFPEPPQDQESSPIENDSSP

Regarding Obinutuzumab (antibody), the EC:50 of percent specific lysis of ARH-77 cells, 4 h caspase assay, AB-202 + 0.01 µg/mL Obinutuzumab was found to be 1.21; the EC:50 of percent specific lysis of ARH-77 cells, 4 h caspase assay, AB-202 + 0.1 µg/mL Obinutuzumab is 1.05; the EC:50 of percent specific lysis of ARH-77 cells, 4 h caspase assay, AB-202 + 1 µg/mL Obinutuzumab was 0.97; the EC:50 of percent specific lysis of ARH-77 cells, 4 h caspase assay, CBNK + 0.01 µg/mL Obinutuzumab amounted to 2.99. In addition, the EC:50 of percent specific lysis of ARH-77 cells, 4 h caspase assay, CBNK + 0.1 µg/mL Obinutuzumab is 0.85; the EC:50 of percent specific lysis of ARH-77 cells, 4 h caspase assay, CBNK + 1 µg/mL Obinutuzumab was 0.37; the fold increase of AB-202 killing activity on ARH-77 cells with 1 µg/mL Obinutuzumab versus no antibody was 2.9 fold; the fold increase of CBNK killing activity on ARH-77 cells with 1 µg/mL Obinutuzumab versus no antibody came out at 66.5 fold.

For Rituximab (antibody), the EC:50 of percent specific lysis of ARH-77 cells, 4 h caspase assay, AB-202 + 0.1 µg/mL Rituximab is 1.56; the EC:50 of percent specific lysis of ARH-77 cells, 4 h caspase assay, AB-202 + 1 µg/mL Rituximab stood at 1.49; the EC:50 of percent specific lysis of ARH-77 cells, 4 h caspase assay, CBNK + 0.01 µg/mL Rituximab amounted to 11; the EC:50 of percent specific lysis of ARH-77 cells, 4 h caspase assay, CBNK + 0.1 µg/mL Rituximab amounted to 3.25. Besides, the EC:50 of percent specific lysis of ARH-77 cells, 4 h caspase assay, CBNK + 1 µg/mL Rituximab worked out at 2.39.
